B4: hD52 bait (GAL4 DNA-binding domain fusion, pAS2-1hD52) (other)
chain: MKLLSSIEQACDICRLKKLKCSKEKPKCAKCLKNNWECRYSPKTKRSPLTRAHLTEVESRLERLEQLFLLIFPREDLDMILKMDSLQDIKALLTGLFVQDNVNKDAVTDRLASVETDMPLTLRQHRISATSSSEESSNKGQRQLTVSMDRGEQGLLRTDPVPEEGEDVAATISATETLSEEEQEELRRELAKVEEEIQTLSQVLAAKEKHLAEIKRKLGINSLQELKQNIAKGWQDVTATSAYKKTSETLSQAGQKASAAFSSVGSVITKKLEDVKNSPTFKSFEEKVENLKSKVGGTKPAGGDFGEVLNSAANASATTTEPLPEKTQESL
notes: Fusion expressed in yeast; also called full-length hD52 bait

For experiment [1], the target named is T1, hD53 bait (GAL4 DNA-binding domain fusion, pAS2-1hD53) (human, UniProt P04386 1-147 (Saccharomyces cerevisiae entry)).
T1 construct: Fusion expressed in yeast; also called full-length hD53 bait
Description: yeast two-hybrid screening of a human breast carcinoma cDNA library in Y190 (His+ lacZ+).

The target in experiment [2] is B4. Description: yeast two-hybrid screening of a human breast carcinoma cDNA library in Hf7c (His+). As for the experimental part:
(§1) Transformants were plated onto solid SD/-His-Trp-Leu (incorporating 35 mM 3-AT in the case of Y190 transformants) and incubated for up to 14 days at 30° C. After 3 initial days of growth, plates were inspected daily, and His+ colonies were transferred to SD/-His-Trp-Leu +0.07 M potassium phosphate pH 7+40 µg/ml X-gal plates which incorporated 35 mM 3-AT in the case of Y190 co-transformants. Colonies which remained His+, and in the case of Y190 co-transformants, were also lacZ+, were re-streaked onto fresh plates to check that all colonies were of uniform phenotype. After 6 days incubation at 30° C., yeast colonies were directly harvested, and plasmid DNA was isolated and used to transfect XL1 Blue. Mini-preparations of plasmid DNA were performed for at least 5 XL1 Blue colonies per transfection, with the results of restriction digests differentiating potential interactors from bait plasmids. […] Phenotypes of resulting co-transfectants were assayed quantitatively and/or qualitatively as described above.

Experiment [3] concerns the target T2, hD53 interactor (GAL4 activation domain fusion, pACT2hD53) (human, UniProt P04386 768-881 (Saccharomyces cerevisiae entry)).
T2 construct: range 768-881
T2 sequence: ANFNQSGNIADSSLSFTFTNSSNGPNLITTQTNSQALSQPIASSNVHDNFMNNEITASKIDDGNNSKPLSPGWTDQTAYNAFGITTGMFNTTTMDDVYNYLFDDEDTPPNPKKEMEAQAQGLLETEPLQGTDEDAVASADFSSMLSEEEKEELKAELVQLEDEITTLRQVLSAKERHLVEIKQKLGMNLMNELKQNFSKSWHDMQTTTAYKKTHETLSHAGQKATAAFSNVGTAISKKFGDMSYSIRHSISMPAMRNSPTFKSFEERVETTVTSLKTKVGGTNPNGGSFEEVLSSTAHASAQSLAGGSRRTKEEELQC
Description: yeast two-hybrid in Y190, β-galactosidase assay. As for the experimental part: Interactions between baits and interactors were assessed by qualitatively and/or quantitatively determining HIS3 and lacZ reporter gene activity in Y190 co-transfectants. Reporter gene activities were assessed qualitatively by observing the growth and color development of Y190 co-transfectants on solid SD media lacking His, Trp and Leu (SD/-His-Trp-Leu), and incorporating 0.07 M potassium phosphate pH 7, 35 mM 3-AT, and 40 µg/ml X-gal. For quantitative assessment of interactions, β-galactosidase activity was measured using the substrate o-nitrophenyl β-D-galactopyranoside (ONPG) in liquid cultures (SD/-His-Trp-Leu +35 mM 3-AT) of Y190 co-transfectants.

Experiment [4] concerns the target T3, eukaryotic initiation factor 4AII library interactor (pAD-GAL4 construct, DNA Database of Japan accession no. … (human, UniProt P04386 761-881; Q14240 1-407, limits assumed).
T3 construct: False positive of the Hf7c screen
Description: yeast two-hybrid, retransfection of Hf7c. As for the experimental part:
as §1

The target in experiment [5] is T4, histidyl t-RNA synthetase library interactor (pAD-GAL4 construct, EBML accession no. Z 11518) (human, UniProt P04386 761-881; P12081 2-509, limits assumed).
T4 construct: False positive of the Hf7c screen
T4 sequence (looked up): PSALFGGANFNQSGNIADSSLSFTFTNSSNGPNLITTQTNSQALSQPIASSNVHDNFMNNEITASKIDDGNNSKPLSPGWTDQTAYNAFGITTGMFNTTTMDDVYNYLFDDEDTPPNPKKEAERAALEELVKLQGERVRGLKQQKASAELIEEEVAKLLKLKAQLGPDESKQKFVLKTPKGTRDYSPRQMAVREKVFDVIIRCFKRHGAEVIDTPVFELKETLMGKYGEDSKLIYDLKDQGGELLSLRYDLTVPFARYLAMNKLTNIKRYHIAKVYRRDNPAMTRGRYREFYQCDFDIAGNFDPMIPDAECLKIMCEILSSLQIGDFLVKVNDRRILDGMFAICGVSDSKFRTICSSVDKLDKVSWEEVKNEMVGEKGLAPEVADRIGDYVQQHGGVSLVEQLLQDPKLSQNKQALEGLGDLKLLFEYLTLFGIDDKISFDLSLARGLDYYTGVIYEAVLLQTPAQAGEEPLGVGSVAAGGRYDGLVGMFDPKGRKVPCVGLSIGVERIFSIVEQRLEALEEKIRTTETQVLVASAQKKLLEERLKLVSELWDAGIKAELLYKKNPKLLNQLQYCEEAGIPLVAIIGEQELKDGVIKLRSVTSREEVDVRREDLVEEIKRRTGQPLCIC
Description: yeast two-hybrid, retransfection of Hf7c. How it is done:
as §1

The target in experiment [6] is T2, hD53 interactor (GAL4 activation domain …). Description: yeast two-hybrid, Y190 co-transfectants, HIS3/lacZ reporters; interactor (GAL4-AD fusion) against bait (GAL4-DB fusion). How it is done:
(§2) Interactions between baits and interactors were assessed by qualitatively and/or quantitatively determining HIS3 and/or lacZ reporter gene activity in Y190 co-transfectants.
(§3) Interactions between D52-like proteins within the yeast two-hybrid system, as measured by quantitative β-galactosidase assays. […] Three (or two*) colonies from each co-transfected Y190 strain were cultured in the absence of histidine, and assayed separately for β-galactosidase activity (see Methods). The mean number of β-galactosidase activity units obtained for each co-transfection is presented, ± the standard error.

Experiment [7] deals with T5, hD52 interactor (GAL4 activation domain fusion, pAD-GAL4hD52) (human, UniProt P04386 761-881 (Saccharomyces cerevisiae entry)).
T5 construct: range 761-881; also called hD52^c
T5 sequence: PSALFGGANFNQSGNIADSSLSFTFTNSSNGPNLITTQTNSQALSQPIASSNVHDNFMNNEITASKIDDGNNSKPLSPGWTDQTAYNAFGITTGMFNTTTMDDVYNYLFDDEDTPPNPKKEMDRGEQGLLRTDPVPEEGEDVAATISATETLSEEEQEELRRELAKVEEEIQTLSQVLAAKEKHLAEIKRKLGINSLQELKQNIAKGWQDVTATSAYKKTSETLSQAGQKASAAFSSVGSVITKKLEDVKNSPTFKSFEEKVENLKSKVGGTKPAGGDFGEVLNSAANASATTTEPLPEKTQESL
The experiment is described as above. As for the experimental part:
as §2, §3

Experiment [8] concerns the target T6, hD54+ins2 interactor (GAL4 activation domain fusion, pACT2hD54+ins2) (human, UniProt P04386 768-881 (Saccharomyces cerevisiae entry)).
T6 construct: range 768-881
The experiment is described as above. How it is done:
as §2, §3

In experiment [9] the target is T7, hD54-ins2 interactor (GAL4 activation domain fusion, pACT2hD54-ins2) (human, UniProt P04386 768-881 (Saccharomyces cerevisiae entry)).
T7 construct: range 768-881
The description is as above. How it is done: as §2, §3

Experiment [10] concerns the target T8, mD52(1-163) interactor (GAL4 activation domain fusion, pACT2mD52(1-163)) (mouse, UniProt P04386 768-881 (Saccharomyces cerevisiae entry)).
T8 construct: range 768-881
T8 sequence: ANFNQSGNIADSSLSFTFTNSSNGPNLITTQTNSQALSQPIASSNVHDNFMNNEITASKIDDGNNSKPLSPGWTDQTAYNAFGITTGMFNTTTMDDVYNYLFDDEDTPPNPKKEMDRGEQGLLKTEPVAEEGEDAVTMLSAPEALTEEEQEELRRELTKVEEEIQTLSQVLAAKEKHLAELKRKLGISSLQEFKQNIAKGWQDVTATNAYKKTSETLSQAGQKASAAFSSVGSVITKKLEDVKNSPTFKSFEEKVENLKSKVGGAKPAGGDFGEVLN
The description is as above. How it is done:
as §2, §3

Experiment [11] deals with B4. Description: yeast two-hybrid, retransfection of Hf7c. As for the experimental part: as §1

B1: hD53 library interactor, pAD-GAL4 clone beginning at nt 204 of the hD53 cDNA (Leu9) (other)
chain: PSALFGGANFNQSGNIADSSLSFTFTNSSNGPNLITTQTNSQALSQPIASSNVHDNFMNNEITASKIDDGNNSKPLSPGWTDQTAYNAFGITTGMFNTTTMDDVYNYLFDDEDTPPNPKKELETEPLQGTDEDAVASADFSSMLSEEEKEELKAELVQLEDEITTLRQVLSAKERHLVEIKQKLGMNLMNELKQNFSKSWHDMQTTTAYKKTHETLSHAGQKATAAFSNVGTAISKKFGDMSYSIRHSISMPAMRNSPTFKSFEERVETTVTSLKTKVGGTNPNGGSFEEVLSSTAHASAQSLAGGSRRTKEEELQC
notes: range 761-881; The clone lacks hD53 residues 1-8 (starts at Leu9); Found with the hD53 bait in Y190 and with the hD52 bait in Hf7c; also called nt 204 (Leu^9)
Take B1: the binding result in experiment [1] and in experiment [2] was “binds” throughout.

B2: mD52(1-95) bait (GAL4 DNA-binding domain fusion, pAS2-1mD52(1-95)) (other)
chain: MKLLSSIEQACDICRLKKLKCSKEKPKCAKCLKNNWECRYSPKTKRSPLTRAHLTEVESRLERLEQLFLLIFPREDLDMILKMDSLQDIKALLTGLFVQDNVNKDAVTDRLASVETDMPLTLRQHRISATSSSEESSNKGQRQLTVSMDRGEQGLLKTEPVAEEGEDAVTMLSAPEALTEEEQEELRRELTKVEEEIQTLSQVLAAKEKHLAELKRKLGISSLQEFKQNIAKGWQDVTATNA
notes: also called N-terminal half of mD52
Take B2: in [3], the binding result was “binds”.

B3: hD52 library interactor, pAD-GAL4 clone beginning at nt 60 of the hD52 cDNA (<Met1) (other)
chain: PSALFGGANFNQSGNIADSSLSFTFTNSSNGPNLITTQTNSQALSQPIASSNVHDNFMNNEITASKIDDGNNSKPLSPGWTDQTAYNAFGITTGMFNTTTMDDVYNYLFDDEDTPPNPKKEMDRGEQGLLRTDPVPEEGEDVAATISATETLSEEEQEELRRELAKVEEEIQTLSQVLAAKEKHLAEIKRKLGINSLQELKQNIAKGWQDVTATSAYKKTSETLSQAGQKASAAFSSVGSVITKKLEDVKNSPTFKSFEEKVENLKSKVGGTKPAGGDFGEVLNSAANASATTTEPLPEKTQESL
notes: range 761-881; also called nt 60 (<Met^1)
B3: in experiment [2], the binding result is listed as “binds”.
In the case of B4, the binding result in experiment [4] and in experiment [5] was “no binding” in each case.

B5: mD52 bait (GAL4 DNA-binding domain fusion, pAS2-1mD52) (other, not shown: small tags and cut ends)
chain: MDRGEQGLLKTEPVAEEGEDAVTMLSAPEALTEEEQEELRRELTKVEEEIQTLSQVLAAKEKHLAELKRKLGISSLQEFKQNIAKGWQDVTATNAYKKTSETLSQAGQKASAAFSSVGSVITKKLEDVKNSPTFKSFEEKVENLKSKVGGAKPAGGDFGEVLNSTANATSTMTTEPPPEQMTESP
notes: Fusion expressed in yeast; also called full-length mD52 bait
As to B5, the binding result in experiment [6], in [7], in experiment [8], in experiment [9] and in experiment [10] was “binds” throughout.

B6: RING10 proteasome subunit library interactor (pAD-GAL4 construct, GenBank accession no. X62598) (other, UniProt P04386 761-881, looked up)
chain: PSALFGGANFNQSGNIADSSLSFTFTNSSNGPNLITTQTNSQALSQPIASSNVHDNFMNNEITASKIDDGNNSKPLSPGWTDQTAYNAFGITTGMFNTTTMDDVYNYLFDDEDTPPNPKKETTTLAFKFQHGVIAAVDSRASAGSYISALRVNKVIEINPYLLGTMSGCAADCQYWERLLAKECRLYYLRNGERISVSAASKLLSNMMCQYRGMGLSMGSMICGWDKKGPGLYYVDEHGTRLSGNMFSTGSGNTYAYGVMDSGYRPNLSPEEAYDLGRRAIAYATHRDSYSGGVVNMYHMKEDGWVKVESTDVSDLLHQYREANQ
notes: False positive of the Hf7c screen
As for B6, in experiment [11], the binding result was “no binding”.

The values above are taken from patent US6458943 (INSTITUT NATIONAL DE LA SANTE ET DE LA RECHERCHE MEDICALE, dated 2002).
